Measured values reported in the supplement of paper PMC10567573.

B1: POLD4 (parent)
chain: ITDSYPVVKRREGPAGHSKGELAP
B2: ZNF263 (parent)
chain: PEASHLRFRRFRFQEAAGPREALS

Variants of: B1
Test: protein stability index of a GFP-peptide fusion (GPS, HEK-293T) (PSI 1-6); higher = more stable
Conditions: c terminus: a fixed tail appended
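Further: lentivirally expressed fusions sorted by FACS into six bins by GFP to DsRed ratio, PSI derived from sequencing read proportions per bin multiplied by bin number.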

Protein stability index of substitutions, site by site:
R10: M 3.16 | F 3.57 | Y 4.05 | W 3.07 | Q 3.8 | E 4.8 | P 4.68 | N 3.92 | G 4.21 | L 3.64 | I 3.38 | S 3.89 | T 3.6 | H 4.33 | V 3.94 | K 2.39 | C 3.79 | A 4.56 | D 4.98
G20: T 2.67 | E 2.93 | W 2.83 | P 4 | Y 2.92 | V 3.07 | L 3.11 | A 3.06 | C 3.79 | M 3.49 | S 2.58 | N 4.09 | D 3.55 | I 2.99 | Q 2.41 | H 2.22 | F 2.81 | K 2.62
H17: V 3.2 | C 2.06 | R 3.35 | Q 3.51 | N 3.54 | I 3.49 | P 2.5 | L 3.49 | F 3.01 | A 2.97 | Y 2.66 | K 4.05 | E 4.36 | D 2.31 | T 3.91 | S 3.78
E21: Q 4.12 | I 2.96 | H 3.23 | V 3.03 | P 4.46 | T 2.75 | S 2.89 | M 2.6 | L 2.85 | G 3.23 | N 3.1 | R 2.13 | C 3.14 | D 3.37 | K 3 | F 2.64 | W 2.84
A23: D 2.69 | F 3.27 | N 3.05 | Y 3.21 | Q 3.31 | S 3.59 | W 3.43 | V 2.8 | I 3.24 | E 3.21 | G 2.68 | L 3.2 | R 3.01 | H 3 | M 2.1 | K 3.65 | P 2.96 | T 2.68
P24: D 2.5 | A 2.56 | S 3.93 | N 3.62 | Q 4.1 | W 2.73 | Y 2.38 | C 3.13 | I 1.97 | L 3.56 | M 2.89 | R 2.77 | V 2.19 | E 3.66 | F 4.06
L22: F 3.27 | S 3.27 | K 3.71 | T 3.21 | N 3.31 | I 3.1 | C 3.26 | M 3.21 | Y 2.52 | A 3.62 | R 2.57 | P 3.31 | H 3.2 | Q 3.89 | G 2.91 | D 3.81 | V 3.42 | W 3.04 | E 3.94
K9: S 4.41 | F 3.1 | D 4.63 | M 4.06 | I 3.8 | W 4.14 | A 4.65 | G 5.01 | R 3.25 | Y 4.15 | T 4.71 | H 2.72 | C 3.95 | E 4.83 | V 4.06 | P 4.26
E12: F 1.86 | L 2.87 | G 3.01 | W 2.88 | M 2.87 | N 2.85 | S 2.69 | R 2.65 | A 2.52 | Q 4.16 | H 2.72 | P 3.26 | V 2.72 | Y 2.48 | K 3.11 | C 2.1 | I 3.53 | T 3.41 | D 3.08
K19: L 2.81 | R 2.81 | T 3.62 | H 3.56 | S 3.46 | D 3.96 | P 4.07 | V 3.37 | Y 3.06 | I 2.79 | M 2.9 | F 2.48 | Q 3.16 | N 2.59 | G 3.89 | E 3.28
A15: Y 3.75 | D 2.81 | H 2.75 | C 2.8 | K 3.45 | P 3.03 | L 3.32 | N 2.97 | T 2.22 | S 2.8 | V 3.23 | I 2.58 | E 3.33 | R 3.27 | Q 2.94 | F 2.41 | M 3.08
V8: K 3.2 | R 2.88 | Q 3.1 | D 5.21 | Y 4.34 | N 4.21 | E 5.31 | M 3.98 | F 4.32 | I 3.26 | W 3.16 | P 4.35 | S 4.84 | C 3.79 | T 4.42 | H 4.07
P14: S 2.43 | T 3.57 | A 3.82 | C 3.14 | V 1.93 | M 3.06 | I 3.1 | Y 2.81 | Q 3.89 | E 4.1 | N 3.55 | D 2.94 | K 2.97 | H 3.84 | R 2.46 | G 2.98 | W 2.84 | L 3.24 | F 3.28
S18: P 2.84 | W 2.8 | G 3.94 | M 2.68 | E 3.26 | A 3.01 | R 3.14 | D 4.01 | H 3.35 | T 2.87 | Y 2.46 | V 2.1 | I 3.44 | F 2.91 | C 3.17 | Q 3.65 | K 3.02 | N 2.22 | L 2.91
R11: W 3.46 | P 3.28 | Y 3.36 | C 3.68 | G 3.79 | D 4.79 | I 3.76 | L 2.98 | N 3.28 | E 5.14 | M 2.87 | K 3.54 | T 3.33 | H 3.28 | Q 4.37 | S 3.23 | V 2.69 | F 2.43 | A 3.23
G16: F 3.33 | I 2.72 | Y 2.39 | H 3.08 | K 3.07 | Q 3.5 | A 4.75 | R 3.64 | L 2.49 | E 3.83 | V 2.57 | M 2.56 | W 2.66 | D 3.77 | S 2.51 | N 2.82 | C 3.52 | T 3.62 | P 3.28
P6: W 3.4 | L 3.75 | T 4.55 | S 3.53 | I 4.17 | R 2.94 | N 4.51
G13: V 2.62 | Y 3.11 | I 2.7 | F 2.45 | W 2.5 | R 3.7 | E 3.86 | D 3.94 | S 3.22 | H 3.24 | P 4.43 | A 2.92 | L 2.75 | Q 3.32 | C 3.87 | N 2.78 | T 3.19
V7: H 4.4 | K 3.56 | Q 3.79 | T 4.18 | A 4.02 | F 3.45 | S 4.76 | D 4.8 | Y 4.14 | I 3.42 | G 4.93 | L 3.44 | E 5.27 | N 4.2 | P 5.22 | W 4.17 | C 3.63

Variants of: B2
Test: as above
Conditions: c terminus: a fixed tail appended

Protein stability index: each site, then its substitutions
P1: I 2.71 | E 2.97 | F 3.44 | A 1.75 | K 2.38 | L 2.53 | G 2.8 | D 2.65 | M 2.73 | H 2.16 | C 1.96
